# Laboratory results as given in article doi:10.1101/2025.06.01.657267, “IFITM1 and IFITM3 cooperate to restrict virus entry in endolysosomes” (bioRxiv, 2025).
# B1: endogenous IFITM1 (natural protein, UniProt P13164 1-125, looked up)
# chain: MHKEEHEVAVLGPPPSTILPRSTVINIHSETSVPDHVVWSLFNTLFLNWCCLGFIAFAYSVKSRDRKMVGDVTGAQAYASTAKCLNIWALILGILMTIGFILLLVFGSVTVYHIMLQIIQEKRGY
# notes: Interferon-induced transmembrane protein 1 (IFITM1), human, endogenous
# Target: T1, FLAG-IFITM3 G95L (human, UniProt Q01628 1-133, G95L)
# T1 construct: Interferon-induced transmembrane protein 3 (IFITM3), human, with G95L in the GxxxG motif of the CD225 domain; also called pQCXIP-FLAG-IFITM3 G95L; source: HEK293T, stably expressing pQCXIP-FLAG-IFITM3 G95L, in lysate; HEK293T, transiently transfected, in fixed cells
# T1 sequence (Q01628 whole entry G95L, the tested form may be a part): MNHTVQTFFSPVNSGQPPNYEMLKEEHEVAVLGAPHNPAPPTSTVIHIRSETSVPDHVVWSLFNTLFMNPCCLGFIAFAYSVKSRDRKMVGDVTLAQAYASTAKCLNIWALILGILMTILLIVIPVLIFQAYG
# Experiment: affinity purification with mass spectrometry; anti-FLAG (M2) immunoprecipitation from whole cell lysates (1% Triton X-100, 150 mM NaCl) of HEK293T stably expressing FLAG-IFITM3 WT, G95L or Empty Vector; TMT labelling, duplicate MS runs
# Conditions: partners not purified
binder,measurement,value
B1,fold more IFITM1 pulled down by IFITM3 WT than by IFITM3 G95L,~9 fold
